# Publication PMC10602870
# Legend:
# Assay in all cases: native gel or EMSA; binding titrations of 80N0 nucleosomes with Chd1 in the presence of AMP-PNP and salmon sperm competitor DNA; observed (apparent) Kd; read from gels (Supplementary Figure S6)
# [1] = biological target: 80N0 Widom 601 nucleosome with 2 bp DNA mismatches at both SHL2 sites (SHL+/-2, 20 bp from the dyad), Xenopus laevis histone octamer with H2B(S53C) (Xenopus laevis)
# [2] = biological target: 80N0 Widom 601 nucleosome with 2 bp DNA mismatches at both SHL2.7 sites (SHL+/-2.7, 27 bp from the dyad), Xenopus laevis histone octamer with H2B(S53C) (Xenopus laevis)
# [3] = biological target: 80N0 Widom 601 nucleosome with pairs of abasic sites at both SHL2 sites (SHL+/-2, 20 bp from the dyad), Xenopus laevis histone octamer with H2B(S53C) (Xenopus laevis)
# [4] = biological target: 80N0 Widom 601 nucleosome with pairs of abasic sites at both SHL2.7 sites (SHL+/-2.7, 27 bp from the dyad), Xenopus laevis histone octamer with H2B(S53C) (Xenopus laevis)
# [5] = biological target: 80N0 nucleosome, canonical Widom 601 DNA, Xenopus laevis histone octamer with H2B(S53C) (Xenopus laevis)
substance,measurement,setting,value
Chd1 chromatin remodeler (from UniProt P32657 1-1468) (enzyme),Kd,[1],450 nM
same,Kd,[2],22.2 nM
same,Kd,[3],10 µM
same,Kd,[4],68 nM
same,Kd,[5],24 nM
